{"source": "patent US7217865B2", "about": "“Transgenic high tryptophan plants” (Monsanto Technology LLC, priority 2001, dated 2007)", "format_in_all_cases": "biochemical, Agrobacterium tumefaciens", "key": {"[1]": {"tested_on": "C=C(O[C@@H]1C=C(C(=O)O)C=C[C@H]1O)C(=O)O", "assay": "Anthranilate synthase enzyme assay and kinetic analysis, wild type", "details": "other: wild type, 25° C., pH 7.0, 10 mM L-glutamine, 2.5–100 μM chorismate", "protocol": "(§1) Agrobacterium tumefaciens AS wild type and mutant enzymes were expressed in E. coli as described in Example 1. The purification of all the Agrobacterium tumefaciens AS enzymes, including wild type and mutants therof, was performed at 4° C. The cells (approximate wet weight of 1 g) were suspended in 20 ml of purification buffer (50 mM potassium phosphate, pH […], 10 mM 2-mercaptoethanol, 10% glycerol) and lysed by ultrasonication (Branson sonifier Cell Disruptor, W185). Supernatant was collected after centrifugation of the homogenate at 20,000× g for 15 min. The supernatant was subjected to ammonium sulfate fractionation (30 to 65% saturation). The precipitate was collected after centrifugation at 20,000× g for […] and dissolved in 3 ml of the purification buffer and then loaded as a whole on an Econo-Pac 10DG desalting column, pre-equilibrated with the same buffer. Fractions containing the enzyme were detected by the developed assay and pooled. The pooled enzyme (4.3 mls) was loaded on a 10 ml DEAE Sephacel (Pharmacia Biotech) column (1.5×7.5 cm) equilibrated with the same buffer. The column was washed with 30 ml of the purification buffer and the enzyme was eluted with 30 ml of 50 mM NaCl in the same buffer. Fractions containing high AS activity were pooled and precipitated by 65% ammonium sulfate saturation and isolated and desalted as above. Fractions containing the enzyme were pooled and stored at −80° C.\n(§2) The standard assay for Agrobacterium tumefaciens AS was performed at 25° C. in an assay buffer containing 100 mM potassium phosphate, pH 7.0, 1 0 mM MgCl2, 1 mM dithiothreitol, 200 μM chorismate and 10 mM L-glutamine. The reaction was started by adding 30 μl of enzyme to the reaction mixture and mixing. The formation of anthranilate was directly monitored by the absorbance increase at […] for 3 min. Initial rate of reaction was calculated as unit absorbance increase per second based on the slope of the absorbance change over the reaction time. Km for chorismate (Km^Cho) was determined in the total volume of 1 ml assay buffer containing 100 mM potassium phosphate, pH 7.0, 10 mM MgCl2, 1 mM dithiothreitol with 10 mM L-glutamine and varying the concentration of chorismate between 2.5–100 μM chorismate. The Km for glutamine (Km^Gln) was determined in the total volume of 1 ml assay buffer containing 100 mM potassium phosphate, pH 7.0, 10 mM MgCl2, 1 mM dithiothreitol with 200 μM chorismate and varying the concentration of L-glutamine between 0.1–2 mM L-glutamine. IC50 for tryptophan (IC50TrP) was determined with in the total volume of 1 ml assay buffer containing 100 mM potassium phosphate, pH 7.0, 10 mM MgCl2, 1 mM dithiothreitol, 10 mM L-glutamine, 200 μM chorismate and varying the concentration of L-tryptophan between 0.1–10 mM L-tryptophan. Kinetic parameters and IC50 of AS were calculated after fitting the data to a non-linear regression program (GraFit)."}, "[2]": {"tested_on": "NC(=O)CC[C@H](N)C(=O)O", "assay": "Anthranilate synthase enzyme assay and kinetic analysis, wild type", "details": "other: wild type, pH 7.0, 200 μM chorismate, 0.1–2 mM L-glutamine, 25.0 °C", "protocol": "as §1, §2"}, "[3]": {"tested_on": "C=C(O[C@@H]1C=C(C(=O)O)C=C[C@H]1O)C(=O)O", "assay": "Anthranilate synthase enzyme assay and kinetic analysis, N52F mutant", "details": "other: N52F, pH 7.0, 10 mM L-glutamine, 2.5–100 μM chorismate, 25.0 °C", "source_text": "(§3) Site directed mutagenesis was used to generate ten single amino acid substitutions six sites. The mutations were introduced into the Agrobacterium tumefaciens AS in pMON34705 using the QuikChange™ Site-Directed Mutagenesis Kit (Stratagene). The primers used for site directed mutagenesis were SEQ ID NO:9–42 (FIG. 7; F=forward, R=reverse). Each primer sequence is specific for alteration of the nucleic acid at a specific location in the sequence and thus changing the encoded codon to code for a new amino acid. For example, S51C designates a change from serine to cysteine at amino acid position 51 in the Agrobacterium tumefaciens AS peptide sequence.\n(§4) Following mutagenesis the sequence of the entire gene was reconfirmed and the variants expressed and purified from E. coli as described below for the wild type enzyme. The resultant plasmids comprising mutant Agrobacterium tumefaciens AS are suitably cloned into a plasmid for overproduction of protein using the T7 expression system as described in Example 1.\nas §1\n(§5) The standard assay for Agrobacterium tumefaciens AS was performed at 25° C. in an assay buffer containing 100 mM potassium phosphate, pH 7.0, 1 0 mM MgCl2, 1 mM dithiothreitol, 200 μM chorismate and 10 mM L-glutamine. The reaction was started by adding 30 μl of enzyme to the reaction mixture and mixing. The formation of anthranilate was directly monitored by the absorbance increase at […] for 3 min. Initial rate of reaction was calculated as unit absorbance increase per second based on the slope of the absorbance change over the reaction time. Km for chorismate (Km^Cho) was determined in the total volume of 1 ml assay buffer containing 100 mM potassium phosphate, pH 7.0, 10 mM MgCl2, 1 mM dithiothreitol with 10 mM L-glutamine and varying the concentration of chorismate between 2.5–100 μM chorismate. […] Kinetic parameters and IC50 of AS were calculated after fitting the data to a non-linear regression program (GraFit)."}, "[4]": {"tested_on": "NC(=O)CC[C@H](N)C(=O)O", "assay": "Anthranilate synthase enzyme assay and kinetic analysis, N52F mutant", "details": "other: N52F, pH 7.0, 200 μM chorismate, 0.1–2 mM L-glutamine, 25.0 °C", "source_text": "as §3, §4, §1, §5"}, "[5]": {"tested_on": "C=C(O[C@@H]1C=C(C(=O)O)C=C[C@H]1O)C(=O)O", "assay": "Anthranilate synthase enzyme assay and kinetic analysis, P293A mutant", "details": "other: P293A, pH 7.0, 10 mM L-glutamine, 2.5–100 μM chorismate, 25.0 °C", "source_text": "as §3, §4, §1, §5"}, "[6]": {"tested_on": "NC(=O)CC[C@H](N)C(=O)O", "assay": "Anthranilate synthase enzyme assay and kinetic analysis, P293A mutant", "details": "other: P293A, pH 7.0, 200 μM chorismate, 0.1–2 mM L-glutamine, 25.0 °C", "source_text": "as §3, §4, §1, §5"}, "[7]": {"tested_on": "C=C(O[C@@H]1C=C(C(=O)O)C=C[C@H]1O)C(=O)O", "assay": "Anthranilate synthase enzyme assay and kinetic analysis, P293G mutant", "details": "other: P293G, pH 7.0, 10 mM L-glutamine, 2.5–100 μM chorismate, 25.0 °C", "source_text": "as §3, §4, §1, §5"}, "[8]": {"tested_on": "NC(=O)CC[C@H](N)C(=O)O", "assay": "Anthranilate synthase enzyme assay and kinetic analysis, P293G mutant", "details": "other: P293G, pH 7.0, 200 μM chorismate, 0.1–2 mM L-glutamine, 25.0 °C", "source_text": "as §3, §4, §1, §5"}, "[9]": {"tested_on": "C=C(O[C@@H]1C=C(C(=O)O)C=C[C@H]1O)C(=O)O", "assay": "Anthranilate synthase enzyme assay and kinetic analysis, S50K mutant", "details": "other: S50K, pH 7.0, 10 mM L-glutamine, 2.5–100 μM chorismate, 25.0 °C", "source_text": "as §3, §4, §1, §5"}, "[10]": {"tested_on": "NC(=O)CC[C@H](N)C(=O)O", "assay": "Anthranilate synthase enzyme assay and kinetic analysis, S50K mutant", "details": "other: S50K, pH 7.0, 200 μM chorismate, 0.1–2 mM L-glutamine, 25.0 °C", "source_text": "as §3, §4, §1, §5"}}}
{"substance": "Agrobacterium tumefaciens anthranilate synthase (AgroAS), wild type, SEQ ID NO:4 (Agrobacterium fabrum str. C58)", "values": [{"measurement": "Km", "setting": "[1]", "value": 8.0, "unit": "µM"}, {"measurement": "kcat", "setting": "[1]", "value": 0.43, "unit": "s⁻¹"}, {"measurement": "kcat/Km", "setting": "[1]", "value": 53700, "unit": "M⁻¹ s⁻¹"}, {"measurement": "Km", "setting": "[2]", "value": 110, "unit": "µM"}]}
{"substance": "Agrobacterium tumefaciens anthranilate synthase variant N52F, SEQ ID NO:62 (Agrobacterium fabrum str. C58; N52F)", "values": [{"measurement": "Km", "setting": "[3]", "value": 5.5, "unit": "µM"}, {"measurement": "kcat", "setting": "[3]", "value": 0.21, "unit": "s⁻¹"}, {"measurement": "kcat/Km", "setting": "[3]", "value": 38200, "unit": "M⁻¹ s⁻¹"}, {"measurement": "Km", "setting": "[4]", "value": 40, "unit": "µM"}]}
{"substance": "Agrobacterium tumefaciens anthranilate synthase variant P293A, SEQ ID NO:63 (Agrobacterium fabrum str. C58; P293A)", "values": [{"measurement": "Km", "setting": "[5]", "value": 24, "unit": "µM"}, {"measurement": "kcat", "setting": "[5]", "value": 0.35, "unit": "s⁻¹"}, {"measurement": "kcat/Km", "setting": "[5]", "value": 14600, "unit": "M⁻¹ s⁻¹"}, {"measurement": "Km", "setting": "[6]", "value": 160, "unit": "µM"}]}
{"substance": "Agrobacterium tumefaciens anthranilate synthase variant P293G, SEQ ID NO:64 (Agrobacterium fabrum str. C58; P293G)", "values": [{"measurement": "Km", "setting": "[7]", "value": 33, "unit": "µM"}, {"measurement": "kcat", "setting": "[7]", "value": 0.48, "unit": "s⁻¹"}, {"measurement": "kcat/Km", "setting": "[7]", "value": 14500, "unit": "M⁻¹ s⁻¹"}, {"measurement": "Km", "setting": "[8]", "value": 70, "unit": "µM"}]}
{"substance": "Agrobacterium tumefaciens anthranilate synthase variant S50K, SEQ ID NO:69 (Agrobacterium fabrum str. C58; S50K)", "values": [{"measurement": "Km", "setting": "[9]", "value": 13, "unit": "µM"}, {"measurement": "kcat", "setting": "[9]", "value": 0.13, "unit": "s⁻¹"}, {"measurement": "kcat/Km", "setting": "[9]", "value": 10000, "unit": "M⁻¹ s⁻¹"}, {"measurement": "Km", "setting": "[10]", "value": 10, "unit": "µM"}]}
